Source: the DeepSol protein solubility set

Assay: soluble on expression in E. coli; label from the status in PepcDB or PDB records

Sequence | soluble on expression in E. coli
MAHHHHHHMGSLSSSSSSSAATGAGAAASQTDAQEVTPVDSLWSPHDVCEAAVDYVLRHVNTVQYMIQSIEEITGKPFLRDRIKCLPAVPRDEASRNPTMGLTPDRVFAGYMWRSARSDCQAKDVVLLEDHIARLFNTKHATAFLKKDKGVNERAASPPTTSDAAATAASSLSTTATQSQLQRLLAGSQLPVLEQVERNIRHELVHAFDDARGAIESSDCVHQACSEIRAARLSGDCFVGQEMRKGRFNFFEGGQKCVRRRAVMAVDRNPVCRGFSERAVDTVFQKCYSDYEPFAAPIYALGSYGDSQFANGTLKL | not soluble
MSEPLLEVKNLKTYFPIKGGIFSRTVGHVKAVDGVSFTIKKGEVFGLVGESGSGKTTIGKTILRLVQKTEGEVKFKGHDVHSLSKEELRKHRPNMQLVFQDPFSSLNPRMRIGEALGEPMLAHGLATKENVREKVTEVLELCGLAPYHIDRYPHEFSGGQRQRIVIARAMVLNPEFIVADEPVAALDVSIQAQIINLFSELQEKKGLSYLFISHDLSVVEHLCTKIGIMYLGTIVETAPRDELFTNPLHPYTKALLSAVPIPDPTVKRERIILEGDIPSPANPPSGCCFHTRCPFATDICKQTGNSVMLVKSTLLLVIMYKREGLFQKLKESFFIY | not soluble
MKNKLPPFIEIYRALIATPSISATEEALDQSNADLITLLADWFKDLGFNVEVQPVPGTRNKFNMLASTGQGAGGLLLAGHTDTVPFDDGRWTRDPFTLTEHDGKLYGLGTADMKGFFAFILDALRDVDVTKLKKPLYILATADEETSMAGARYFAETTALRPDCAIIGEPTSLQPVRAHKGHISNAIRIQGQSGHSSDPARGVNAIELMHDAIGHILQLRDNLKERYHYEAFTVPYPTLNLGHIHGGDASNRICAWCELHMDIRPLPGMTLNELNGLLNDALAPVSERWPGRLTVDELHPPIPGYECPPNHQLVEVVEKLLGAKTEVVNYCTEAPFIQTLCPTLVLGPGSINQAHQPDEYLETRFIKPTRELITQVIHHFCWH | soluble
MGSDKIHHHHHHMCRWLAYSGRPIFLDSLVTQPSHSLVAQSLHSQLNVSSAGVLLSTNGDGFGIGWYHKRPEPGVFKDDKPAWHDENLKNLCHQVKSHIFFAHIRATTTGDVQRTNCHPFQYKNWLFQHNGHVSHFDKIRRELQLEIAPELYPHLRGTTDSETFFLLALTYGLMEQPKQAMQKMVRRVITALEGVDKAGVLNLSCALSDGEKLFILRFAHNEAAMTQFYSADTDCFHEFNGQCNPIPNGSLVVVSEPLDKASDKWTSIPTNTFTSIIKNRVHSEVFL | not soluble
MKTVTARPLTAEAFAPYGSVADISELENLVSLADAYEGTGEAKTPVLQLVQAKAMSGSPVISQMEIHPFSSQTFLPLDQSSSLIVVCEAGEDGMPDESTIKAFLASPSQIVTYRHGVMHHRLTPLAPSGRFAMTMWQTGRGGDTVLYPLHTPVSVDISDITP | not soluble
MSERPVHEYIKELSEALVQLSDKVLQNFNEALYAVTHKDVQSARKIRIVDDEIDQTEVKLEERCLAFLALQQPVARDLRTMVTIIKINDDLERIGDLAVHIIERMPALGHEVMERYQFEKMGNLSATMVRKAIEAFVTRDRLLADNVCAMDEDVDAMHRMIFKKVADAMKACNTDTEQLLAVLSVSRYIERMADHATRIAREVIYLVTGEIVRHSDDTFEKLIQSLKD | soluble
MAHHHHHHMTALERYAFKVDYCDPQANLVRQYLLLYFAEDSTIEMHDLKTKRVFLKRCAYPSLTPRELFIGATVGVFSRSLKLVDYGDEVTRRHFSGSEAEFVVFIQEGGLCHMGSIIDRMHTWELRITNIRLVDLPDSLCRDLGVSRRCVAILFKGSNAIEKVGGLSTEFPNMTVVVAEPSDVNSVRGAAFGPGGTTAVMKNCSVCVIKPHAIMSGYQGAIIQRLIDEGFHITALGMYSLTVADAEDFLEVYNGVVPEYQRLVEQMSSGPCWAVQVCAENSVSALRAICGPHDPDVCHVLFPHTIRSKYGVDRTRNGVHCTDLEEDAPLESEFFFSLLQNA | not soluble
MGHHHHHHSHMSSILPFTPPIVKRLLGWKKGEQNGQEEKWCEKAVKSLVKKLKKTGQLDELEKAITTQNVNTKCITIPRSLDGRLQVSHRKGLPHVIYCRLWRWPDLHSHHELRAMELCEFAFNMKKDEVCVNPYHYQRVETPVLPPVLVPRHTEIPAEFPPLDDYSHSIPENTNFPAGIEPQSNIPETPPPGYLSEDGETSDHQMNHSMDAGSPNLSPNPMSPAHNNLDLQPVTYCEPAFWCSISYYELNQRVGETFHASQPSMTVDGFTDPSNSERFCLGLLSNVNRNAAVELTRRHIGRGVRLYYIGGEVFAECLSDSAIFVQSPNCNQRYGWHPATVCKIPPGCNLKIFNNQEFAALLAQSVNQGFEAVYQLTRMCTIRMSFVKGWGAEYRRQTVTSTPCWIELHLNGPLQWLDKVLTQMGSPSIRCSSVS | soluble
APSYPEYTREEVGRHRSPEERVWVTHGTDVFDVTDFVELHPGGPDKILLAAGGALEPFWALYAVHGEPHVLELLQQYKVGELSPDEAPAAPDAQDPFAGDPPRHPGLRVNSQKPFNAEPPAELLAERFLTPNELFFTRNHLPVPAVEPSSYRLRVDGPGGGTLSLSLAELRSRFPKHEVTATLQCAGNRRSEMSRVRPVKGLPWDIGAISTARWGGARLRDVLLHAGFPEELQGEWHVCFEGLDADPGGAPYGASIPYGRALSPAADVLLAYEMNGTELPRDHGFPVRVVVPGVVGARSVKWLRRVAVSPDESPSHWQQNDFKGFSPCVDWDTVDYRTAPAIQELPVQSAVTQPRPGAAVPPGELTVKGYAWSGGGREVVRVDVSLDGGRTWKVARLMGDKAPPGRAWAWALWELTVPVEAGTELEIVCKAVDSSYNVQPDSVAPIWNLRGVLSTAWHRVRVSVQD | soluble
MNRLHGQQVKIGYGDNTIINKLDVEIPDGKVTSIIGPNGCGKSTLLKALSRLLAVKEGEVFLDGENIHTQSTKEIAKKIAILPQSPEVADGLTVGELVSYGRFPHQKGFGRLTAEDKKEIDWAMEVTGTDTFRHRSINDLSGGQRQRVWIAMALAQRTDIIFLDEPTTYLDICHQLEILELVQKLNQEQGCTIVMVLHDINQAIRFSDHLIAMKEGDIIATGSTEDVLTQEILEKVFNIDVVLSKDPKTGKPLLVTYDLCRRAYS | not soluble
MREVISIHIGQAGVQIGNACWELYCLEHGIQPDGQMPSDKSLGGSDDSFSTFFSETGSGRHVPRAVMVDLEPTVIDEIRTGTYRSLFHPEQLITGKEDAANNYARGHYTIGKEIIDLTLDRIRRLADNCTGLQGFLVFHSFGGGTGSGFTSLLMERLSVDYGKKAKLEFSIYPAPQVSTAVVEPYNSILTTHTTLEHSDCSFMVDNEAIYDICRRNLDIERPSYTNLNRLIGQIVSSITASLRFDGALNVDLTEFQTNLVPYPRIHFPLATFSPVISAEKAYHEQLSVAEITNMCFEPHNQMVKCDPRHGKYMAVCLLFRGDVVPKDVNAAIATIKTKRSIQFVDWCPTGFKVGINYQPPTVVPGGDLAKVPRAVCMLSNTTAIAEAWARLDHKFDLMYAKRAFVHWYVGEGMEEGEFSEAREDLAALEKDYEEVGVDSMEDNGEEGDEY | not soluble
GPGSMEGPPPVCFRQCSFTYGAEPSTLHISQQCFSDYVWILVTEDDTCVPGVVLRFDPHDAGPCVGCESLNNLPSLPCEYLLGVRDHALTNILSSAIAHAIQSVGEQRPLLLCVSAAKTAKRLQTTEERMSFVRMVREKVVALAKGETC | not soluble
MRLEVLCEDRLGLTRELLDILASKSIDLRGIEIDISGIIYLNCPDIDFDTFSELMAEIRRIPGVKDVRKIQFMPMERHNTELLSLVDNLPDPVFAIDLKGAVDMANMSALSLLGLHKQEVIGTQIGALLPSVRFSRWSEGVNARTRENLVIDGLDYILELMPVYIRDEAQNSTLASTLMTIRTSQHGTQIE | not soluble
MSLIGVIGVKRNVDIAIREKLALYPKKHKKYVGELLNSFKEVVILNTCNRTEIYFNCTEEISEDEIFDKIFNVFNWNDDLKKYMFLSKEKRAVTHLMEVICGFHSRILGEDQILGQIKGAYKTAISDNSISSELQKMFEIAIACGKKFKTECKMFEVPVSSVSISINSALLKGCRKFMVLGYGEIGKLAIKHLLSHKVECIYLIVRDKSKASDLEGEIVEVLDFNEKNQVINEIDCIVSCTAAPHTVVRNEDIKTEGETIHIYDLAVPRDVDKELSEKERVILKDIDEISKIDDKNKKIRKERMEEYKHIVEESIDEFLNWLKIREVSSKIRNIKIRENEICSERIKTFSNKGNGENAKLAERMIKSTADAYVNRAIELLKSEALKGSDSYCAEIIEKIFLTEGHHHHHH | soluble
SLLLKMDAFQDRLGTRGMLVRKGDHDETKVLPAVPVPQVRAANLPAAQAGDARIGTLPALFQALRASLPADEECNGLQAGDAQEPLTVTRLSTDKLLVSTDCWMGAYNVGTGVRVLNARAPFSCQPW | not soluble
MQTGRQQNKGTIFASLNMSRKNRHNVLPRATMLRKKAIQIRLNEAEHKAVETYCSRFKVENRSRWIRETLMKEVIHRLESDTPLLFREEEMR | not soluble
MNLNIDWSKDFQEFQEILNSGIHPEWLYCAKANLVLEPAYTGEGKQFFSTQDIIYASKIIPFFLEHHHHHH | not soluble
MGSDKIHHHHHHMKCLLCGQTMKTVLTFSSLLLLRNDDSCLCSDCDSTFERIGEENCPNCMKTELSTKCQDCQLWCKEGVEVSHRAIFTYNQAMKDFFSRYKFDGDFLLRKVFASFLSEELKKYKEYQFVVIPLSPDRYANRGFNQVEGLVEAAGFEYLDLLEKREERASSSKNRSERLGTELPFFIKSGVTIPKKILLIDDIYTTGATINRVKKLLEEAGAKDVKTFSLVR | not soluble
MAHHHHHHMQLQPPKPIIKDFNVGISPLVQTRLPLVFAQGEYPPPMQDVLLVGISLKADFSAVWDWNTKHMYVACIGRYHTKSNMTVGGVNLQKTHDVTIFDKVLRSKEEAANWTLDNAKKYALENEELGSLAGAAVELMILYHPMRHYGYSPYYTVQPGKNPVMFQLPTAYEKRTEEDDKNAMCSRGYA | not soluble
MKKVRDPLEVTVVGQNIIVADDNYKWLQILPEKKRYSITVMFDNKGNPLEYYFDINIKNITQKGNARTVDLCLDVLALPSGEYELVDEDDLMFALESEQIT | not soluble
GTVSATSPNKCKRPMNAFMLFAKKYRVEYTQMYPGKDNRAISVILGDRWKKMKNEERRMYTLEAKALAEEQKRLNPDCWK | soluble
MTNGQSPAGGVQSVERAFDILEIMASAGGSIGVSELADLAGLPLPTIHRLIRTLMNRGYVRQLPTRRYALGPKLIRLGESATQLIGAWSRPHLSELVRGTGETANMAVLDGTMAVYVAQVPSEHAMRMFTEVGRRVYPHCTGVGKAILMQLSNDAVRSLVGRTGMTTYTENSLTDPDMLIADLELSRNRGFAIDEGEQEIGVRCFSVPVPNAPTPTAISVSGPAARVTLESADHIVPLLKRVAKELGTEFDKNAAL | not soluble
MEQQIADLLDEQEELDLPQEQLEAAEGESEEESEEESSQGEKFPKTRAARIQRLVRDAAVSRNVKDLYGGECQACGLRLVGPDGRPYSEGAHIRPLGKPHCGPDVEPNVLCLCPNCHVRLDIGAIIIEDDWSIIVRAGELGGNVLSKLKRKKEHHVHLDYVRYHREWWLEKGDPSQELEHHHHHH | soluble
